Key:
Assay in all cases: co-IP; HEK293T co-transfected with FLAG-Siah construct and HA-PHD3; lysate on anti-FLAG M2 agarose beads, 4°C 1 hour, washed with NP40 lysis buffer; blot with anti-HA; densitometry as percentage of WT Siah2 SBD for Fig. 7c
[1] = target: [S1-6Mut]^NT[S2]^CT (6Mut = E17S/P21H/A26P/P57S/Q62A/F98H) (human)
[2] = target: SBD[S1]^NT[S2]^CT (SBD chimera with Siah1 N-terminus and Siah2 C-terminus) (human)
[3] = target: [S1-8Mut]^NT[S2]^CT (8Mut = N3S/E17S/P21H/A26P/F34Y/P57S/Q62A/F98H) (human)

binding as percentage of the binding of WT Siah2 SBD to PHD3 (densitometry) [1]: 29 percent
binding as percentage of the binding of WT Siah2 SBD to PHD3 (densitometry) [2]: 4 percent
binding as percentage of the binding of WT Siah2 SBD to PHD3 (densitometry) [3]: 48 percent
Substance: HA-PHD3 (prolyl hydroxylase 3) (from UniProt Q9H6Z9 1-239) (natural protein)

Reference: PMC4159269
